Test results taken from the DeepSol protein solubility set.

Test: soluble on expression in E. coli; label from the status in PepcDB or PDB records

| Sequence | soluble on expression in E. coli |
| --- | --- |
| MAEVPHHNIPAVDMLNATSRLQLEAQELRNNKPNWGSYFRSQMIQEDDYNFITSFENAKSKEERDQVLAANNANGQAAKTMANLITQVAKDQNVRYVLTLFDDMLQEDKSRVELFHSAAARQKRTVWSQYLGILQRQDNFIVNQMSSIIAKLACFGTTRMEGQDLQYYFSFLKEQLKNSTTNDYMNTTARCLQMMLRHDEYRHEFVDSDGVQTLVTALNGKTNFQLQYQLIFAVWCLTFNADIARKAPSLGLIQALGDILSESTKEKVIRIILASFVNILSKVDEREVKREAALQMVQCKTLKTLELMDAKKYDDPDLEDDVKFLTEELTLSVHDLSSYDEYYSEVRSGRLQWSPVHKSEKFWRENASKFNDKQFEVVKILIKLLESSHDPLILCVASHDIGEYVRHYPRGKTVVEQYQGKAAVMRLLTAEDPNVRYHALLAVQKLMVHNWEYLGKQLDSDVQTDTVAVK | not soluble |
| SNGRADFREPNAQVSRPIPDIGGGYIPTEEEWRLFAECHEECFWFRSVPLAATSMLITQGLISKGILSSHPKYGSIPKLIFACIVGYFAGKLSYVKTCQEKFKKLENSPLGEALRSGELRRSLPPGHYTQKPKYDSNVSGQSSFGTSPAADNIEKETLPRYEPIPFSASMNESTPTGITDHIAQGPDPNLEDSPKRKSVTYEELRNKNRESYGVTLSHKTDPSVRPMQERGPQKEVKVNKYGDTWDE | soluble |
| MGSDKIHHHHHHMMSAVADIQECRDFLAAHPQVKFVEVFFTSMTGVPRGKRLRVHELEAIYEYGRFLPGSVLVVDTNGADCEDTGLVWEDGDADRRARPVPGTLTLAPWLGPDVAQVMLSLYELDGTPNDLDPRHVLQRVLDRYAADGLTPVAACELEYYLVDLQRGPNGELLPAKSLQTGLRPTGIQVYGLPELEAHAPFLRELWDVADTLGVPLEGAISEFAPAQVELTLKHKPDALRAADDAVLYKRAAKGVALRHGMEATFMAKPWSDRAGNGFHVHLSVNDAAGNNLCASEDIEGSDLLKHAIGGMKVLLGEGMAILAPNANSYRRFKANSYAPVAPTWGVNNRTVSLRVPAGPPKTRHVEHRVAGADGNPYLVLAVLLASAHHGITNKIDPGPAVIGDGYAAAAKENIRLPNNWFAAVDLFEQSSVLRDYLGDRFVDMFVSVKRTEQARFFEVVTELDFDWYLRNA | not soluble |
| LKAVNAKKDAKKIDFYEDFSCPHCAELGEVTDGPMTKAIENGDIVVNLRILNFLDRDGDDGNSTKAGAAALAVAQSGDWETYWNYRALLMKEQKNIYGKWGDNDFADVAKSLGASDEVTQKIREGGAKEDFRKFAEANSKKLEKDGGSVSSPRVFIDGKEVKNGIETWVEQATS | not soluble |
| MTTPFTHETLPADPKAAIRQMKQALRAQIGDVQAVFDRLSATIAARVAEINDLKAQGQPVWPIIPFSELAMGNISDATRAEVKRRGCAVIKGHFPREQALAWDQSMLDYLDKNHFDEVYKGPGDNFFGTLSASRPEIYPVYWSQAQMQARQSEEMALAQSFLNRLWQVEHDGKRWFNPDISIIYPDRIRRRPPGTTSKGLGAHTDSGALERWLLPAYQQVFASVFNGNVEQYDPWNAAHRTDVEEYTVDNTTKCSVFRTFQGWTALSDMLPGQGLLHVVPIPEAMAYILLRPLLDDVPEDELCGVAPGRVLPISEQWHPLLMAALTSIPPLEAGDSVWWHCDVIHSVAPVENQQGWGNVMYIPAAPMCEKNLAYARKVKAALETGASPGDFPREDYETTWEGRFTLRDLNIHGKRALGIDV | soluble |
| KDDKVASATDVQFETPLKIVEYPDPILRAKNKRIDIFDENLKNLVDAMFDVMYKTDGIGLSAPQVGLNVQLMVFNPAGEPGEGKEIVLVNPKIKKYSDKLVPFDEGCLSFPGIYAEVVRPQSVKIDARDITGERFSISLSRLPARIFQHEYDHLEGVLFFDRMTDQVLDSIREELEALEKKYEEKTGLPSPER | soluble |
| MITVSIVSHGQSTLVEQLLADLVRLDMSMVTEVLVTLNIPEDISSKPGDYPYPVRILRNTAARGFGANHNAAFRQAEGEWFCVMNPDIRLINNPFPILIEEGAYDSAGVIAPMVVTPSGMIEDSVRCFPVLTSLAAKLFGHGDGRYLFAAGDEAFAADWVAGMFMLFRTEDFRAVGGFDEGFFLYYEDVDICARLWKSGRSVLACPKASVIHDARRSSRRNLRYMKWHALSLIRYFWKHWGRLPQTPEQLEHHHHHH | soluble |
| MGSDKIHHHHHHMFMERQDRYYQTYLNILKEELVAAMGCTEPIAIAYGAAKAREVLGAVPHKVVLEVSSNIIKNVKSVVVPNTDGLKGIEAATAAGIIAGRSDKILEVIAEVCQAEKQQIKTYLSETDIEVKLADSQIIFDIMITMFHQDSYVKLRIADYHTHIVHIEKNGEIIFGTGDLDAGISSLTDRKLLSVSKIIEFADSVRIEDVKELLDKQIEYNSAIARAGMEGNYGANVGRVLLKTYGNDVKIRAKAMAAAGSDARMSGCELPVIINSGSGNQGMTASLPVIEYAAELQSGEEKLYRALVVSNLITLHLKTGIGRLSAFCGVICAGCGSGAGIAYLHGGGYDEIAHTIVNAAAIVSGIVCDGAKPSCAGKIAAAVDAGILGYLMYKEGQQFRGGDGIVAKGIENTIANIGYLGKVGMKETDKEIINIMLNQCSS | not soluble |
| MAHHHHHHMDAVKRHSQSTWPVSMPPLHAGTQEERMTGEEAGSSTKHTEGTNDRREKHRHGPHPGRRLHTSPHTHTHHRSAVSLRVRGFGPPHNKRTHRQQLTTNDKEEKRHTAATVSSSVPRPTGYGHSPAANTQHARSKLSHKVPHAEAGPHPPMTRRLTPCGHTECTDSPIERIRRPSLKAASVIDGP | soluble |
| NLKVKGARDVFEYMKGRIPDETKEHLFVLFLSTKNQILRHETITIGTLTASLIHPREIFKAAIRESAHSIILVHNHPSGDVQPSNADKQVTSILKKAGDLLQIELLDHVIVGNNDWFSFRDHALL | soluble |
| MSLSFSMKIKNIPYYVATRVVKRIQSWLGLNTLGARAIVTNAEGHVLLVKHTYQPHWYLPGGGVKKGESTKAAVIRELHEEVGLVVAEQDVILFGIYHHKYLGVNDYPVIYIVKNFTSHVTHSGEIEQIGWFSLDALPEMVSPGTKRRLGEYFDNNPISEKWEGHHHHHH | soluble |
| MDANEKKEVIKKRFQEIAMSGGTCCSGGGCCGDSSSSDISRAIGYSEADIEAVPDANMGLGCGNPASIAELKPGDIVLDLGSGAGFDCFLAAQKVGNSGKVIGVDMTPEMVEKVQANARKYGYSNVEFRQGDIEALPVEDSSVDVIISNCVINLAPDKEKVFREAFRVLKLGGRLYISDLVLLDELPEDLKNDRDLLAGCVAGAVLKEEYLKLLKRAGFSVEILAEDPDISKSQYKGLPVESLKLKAWVLEHHHHHH | soluble |
| MAHHHHHHMYAIADTDDILIRSNPCRLSVNGVHISVCNEDVVGDMRDRMVERWPTADGSLRRVVEALVNGRLYVPLYSLPVATADLKHLPHLRMDYVPSQNELLEIKPAAAALASSTATKGDRRGNADGSDATTSTSGASSSRGWETVFSVAEQPSTDMAAWLQHKVKRAKLEDAAGDNEEGDAASAPGGPVTPSTPTASSKTEYLPHIMFLPSTRPQFATVTHQSEEVDGADIDSAESASGVLVVNQEVWSTRSSPKFELRVAEVTIPNTDLVLRRGATSTNGVTCGVLHIYSA | soluble |
| MAIGFICSSPDAELFSEKSRMSSSVLLGCLLCCMDWSAAVPGKTEPFRKLFDAIMIKKLKSCSAAYPSDLDEGSMCDMADASPTSLELGLSKLDKES | not soluble |
| MGSDKIHHHHHHMRIAQVAPLWERVPPPAYGGIELVVGLLTDELVRRGHEVTLFASGDSISLANLVSVHPRALRLDSSVKEYGIYEMLQLSTVYERADEFDIIHSHMGCASLPYTKLVKTPTVHTLHGIFTPDNEKMFRYAKTEPFVSISDAQRDLRLGLNYVGTVYNGIDVNSYKFYPQPDEPPYLAFLGRISPEKGTHLAIEIAKKSGWHLKIAGKVDVVDVEYFEKEIKPLIDGKQIEYLGEADHTQKNVLMGGAVATLFPITWREPFGLVMVESMASGTPVIAMNLGSTTEVIAHGKTGFLCSNVEECVSAIAKVADLDRYTCREYVQNRFSLQAMTEGYEEVYRQILQQRFANNGHHRSTVALSKV | not soluble |
| MSLTQYWLGLDCGGSWLKAGLYDREGREAGVQRLPLCALSPQPGWAERDMAELWQCCMAVIRALLTHSGVSGEQIVGIGISAQGKGLFLLDKNDKPLGNAILSSDRRAMEIVRRWQEDGIPEKLYPLTRQTLWTGHPVSLLRWLKEHEPERYAQIGCVMMTHDYLRWCLTGVKGCEESNISESNLYNMSLGEYDPCLTDWLGIAEINHALPPVVGSAEICGEITAQTAALTGLKAGTPVVGGLFDVVSTALCAGIEDEFTLNAVMGTWAVTSGITRGLRDGEAHPYVYGRYVNDGEFIVHEASPTSSGNLEWFTAQWGEISFDEINQAVASLPKAGGDLFFLPFLYGSNAGLEMTSGFYGMQAIHTRAHLLQAIYEGVVFSHMTHLNRMRERFTDVHTLRVTGGPAHSDVWMQMLADVSGLRIELPQVEETGCFGAALAARVGTGVYHNFSEAQRDLRHPVRTLLPDMTAHQLYQKKYQRYQHLIAALQGFHARIKEHTLEGHHHHHH | soluble |
| MPNILYKIDNQYPYFTKNEKKIAQFILNYPHKVVNMTSQEIANQLETSSTSIIRLSKKVTPGGFNELKTRLSKFLPKEVTQYNVELVDNESTISLKNKLHSRSKAAL | soluble |
| MAKTLYEKLFDAHVVYEAENETPLLYIDRHLVHEVTSPQAFDGLRAHGRPVRQPGKTFATMDHNVSTQTKDINACGEMARIQMQELIKNCKEFGVELYDLNHPYQGIVHVMGPEQGVTLPGMTIVCGDSHTATHGAFGALAFGIGTSEVEHVLATQTLKQGRAKTMKIEVQGKAAPGITAKDIVLAIIGKTGSAGGTGHVVEFCGEAIRDLSMEGRMTLCNMAIEMGAKAGLVAPDETTFNYVKGRLHAPKGKDFDDAVAYWKTLQTDEGATFDTVVTLQAEEISPQVTWGTNPGQVISVNDNIPDPASFADPVERASAEKALAYMGLKPGIPLTEVAIDKVFIGSCTNSRIEDLRAAAEIAKGRKVAPGVQALVVPGSGPVKAQAEAEGLDKIFIEAGFEWRLPGCSMCLAMNNDRLNPGERCASTSNRNFEGRQGRGGRTHLVSPAMAAAAAVTGHFADIRNIK | soluble |
| MVSEPKVPKAPRPPKQPNVQDFQFFPPRLFELLEKEILYYRKTIGYKVPRNPDLPNSAQVQKEEQLKIDEAEPLNDEELEEKEKLLTQGFTNWNKRDFNQFIKANEKWGRDDIENIAREVEGKTPEEVIEYSAVFWERCNELQDIEKTMAQIERGEARIQRRISILEHHHHHH | soluble |
| MQVSRFLTSFHRLSTALPASTEKYYFETVKHDNRNEVVDFLNNNFRVEEPLSKAAGMTESDIQSCFDGVFERVLKNEVSILARSKQSDEIVGCMLNSVWKRNDPKKNEDEAEDFEFGGDRKGVMTIGEILNELHESFWKLRPDQHTVLHFEISSVNKNHQRQGLASKFMNWTEKKELLKVIEASSIVAEASSLANQILLSKRGYETVASTLLSSRIDVNGKQILVCDDGTDRVDLVFKELN | not soluble |
| SLEGGDTLEGSMAQLKKGLESGTVLIQFEQLYRKKPGLAITFAKLPQNLDKNRYKDVLPYDTTRVLLQGNEDYINASYVNMEIPAANLVNKYIATQGPLPHTCAQFWQVVWDQKLSLIVMLTTLTERGRTKCHQYWPDPPDVMNHGGFHIQCQSEDCTIAYVSREMLVTNTQTGEEHTVTHLQYVAWPDHGVPDDSSDFLEFVNYVRSLRVDSEPLLVHCSAGIGRTGVLVTMETAMCLTERNLPIYPLDIVRKMRDQRAMMVQTSSQYKFVCEAILRVYEEGLVQMLDPS | soluble |
